One block for each binder: values may come before it.
Assays:
[1] = target: T1, human PAR4 on isolated human platelets (human, UniProt Q96RI0 18-385); assay: flow cytometry on isolated human platelets
T1 construct: Native receptor of donor platelets (genotypes AA, AT, TT at residue 120); also called hPAR4
T1 sequence: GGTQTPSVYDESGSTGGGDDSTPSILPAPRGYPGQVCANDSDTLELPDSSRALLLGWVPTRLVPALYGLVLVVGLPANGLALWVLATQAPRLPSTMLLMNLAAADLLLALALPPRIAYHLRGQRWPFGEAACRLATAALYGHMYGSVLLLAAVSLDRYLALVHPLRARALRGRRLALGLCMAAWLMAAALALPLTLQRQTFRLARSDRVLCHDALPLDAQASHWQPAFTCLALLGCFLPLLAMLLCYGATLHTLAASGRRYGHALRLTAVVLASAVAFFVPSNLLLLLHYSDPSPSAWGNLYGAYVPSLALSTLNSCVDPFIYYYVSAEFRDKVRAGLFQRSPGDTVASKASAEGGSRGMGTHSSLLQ

hPAR2 (Biotin) = target: T2, hPAR2 (Biotin) (human, biotin on the C-terminal lysine (GGGGSK-biotin, SKB)); assay: ELISA, biotinylated peptides on streptavidin plate
T2 construct: also called hPAR2 peptide
T2 peptide: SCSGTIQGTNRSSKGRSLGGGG
Experimental: (§1) Biotinylated peptides (hPAR1-4) were diluted in Wash buffer and allowed to bind to the blocked Streptavidin coated wells at 10 ug/ml (100 ul per well) for 1 hour at room temperature with gentle mixing. Wells were washed 3 times as above and purified anti-hPAR4 mAbs prepared at 10 ug/ml in Wash buffer were allowed to bind (100 ul/well) for 1 hour at room temperature with gentle mixing. The plate was washed 3 times as above and anti-mouse Fc conjugated to Alkaline phosphatase (AP) at 0.3 ug/ml (100 ul) was added to the wells for 1 hour as above. Wells were washed 3 times as above and developed with Alkaline Phosphatase substrate as described for the screening supernatant ELISA.
(§2) To further characterise the purified anti-hPAR4 mAb's the specificity of the mAbs to hPAR1, hPAR2, hPAR3 and hPAR4 biotinylated peptides was performed.

hPAR1 (Biotin) [2] = target: T3, hPAR1 (Biotin) (human, biotin on the C-terminal lysine (GGGGSK-biotin, SKB)); assay: ELISA, biotinylated peptides on streptavidin plate
T3 construct: also called hPAR1 peptide
T3 peptide: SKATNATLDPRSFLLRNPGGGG
Experimental: as §1, §2

hPAR3 (Biotin) [3] = target: T4, hPAR3 (Biotin) (human, biotin on the C-terminal lysine (GGGGSK-biotin, SKB)); assay: ELISA, biotinylated peptides on streptavidin plate
T4 construct: also called hPAR3 peptide
T4 peptide: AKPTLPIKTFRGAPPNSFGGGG
Experimental: as §1, §2

hPAR4 (Biotin) [4] = target: T5, hPAR4 (Biotin) (human, biotin on the C-terminal lysine (GGGGSK-biotin, SKB)); assay: SPR (Bio-Rad ProteOn XPR36), biotinylated peptide captured, antibody as analyte
T5 construct: also called hPAR4 biotinylated peptide; Human PAR4 peptide (biotinylated)
T5 peptide: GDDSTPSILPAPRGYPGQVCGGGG

hPAR4 (Biotin) [5] = target: T5, hPAR4 (Biotin); assay: SPR (Biacore T200), biotinylated hPAR4 peptide on SA chip, mAb as analyte
hPAR1 (Biotin) [6] = target: T3, hPAR1 (Biotin); assay: ELISA, hybridoma supernatant
hPAR3 (Biotin) [7] = target: T4, hPAR3 (Biotin); assay: ELISA, hybridoma supernatant

B1: 5D.RH4 (antibody, IgG2a, V domains shown)
VH: QIQLVESGGGVVQPGRSLRLSCAASGFTFSSDGMHWVRQAPGKGLEWVAVIWFDGRNKYYLDSVKGRFTISRDNSKNTLYLQMNSLRAEDTAVYYCARESSISTRPPFDYWGQGTLVTVSS
VL: not shown
notes: Human variable regions on mouse constant regions; isotype IgG2a/κ; also called 5D.RH4.G7.E6.C7b.G7
Binding to human platelets, FACS GMFI at 10 ug/ml (over isotype control) [1]: 33 GMFI

B3: 5F.RE6 (antibody, IgG2a, V domains shown)
VH: QVQLAESGGGVVQPGRSLRVSCAASGFTFSSYGMHWVRQAPGKGLEWVAVIWYDGTKKYYADSLKGRFTISRDNSKYTLYLQMNSLRADDTALYFCARKGARGITGLDYWGQGTLVTVSS
VL: DIQMTQSPSSLSASAGDRITITCRASQSISNYLNWYQQKPGKAPKLLIYAASSLQSGVPSRFSGSGSGTDFTLTISSLQPEDFASYYCRQNYNTPLTFGGGTKVEIK
notes: Human variable regions on mouse constant regions; isotype IgG2a/κ; Tested as parent hybridoma supernatant (MoB5F E6); also called 5F RE6.D3.E7; MoB5F E6
Binding to PAR1 ratio (hPAR1 (Biotin) [6]): 1.1 ratio | Binding to PAR3 ratio (hPAR3 (Biotin) [7]): 0.8 ratio

B4: 5H.RA3 (antibody, IgG2a, V domains shown)
VH: QVQLVESGGGVVQPGRSLRVSCAASGFTFSSYGMLWVRQAPGKGLEWVAVIWYDGTKKYYADSLKGRFTISRDNSKYTLYLQMNSLRADDTALYFCARKGARGITGLDYWGQGTLVTVSS
VL: not shown
notes: Human variable regions on mouse constant regions; isotype IgG2a/κ; also called 5H.RA3.D3b.A2b; MoB5H A3
Binding to human platelets, FACS GMFI at 10 ug/ml (over isotype control) [1]: 100 GMFI

B7: 5G.RG1 (antibody, IgG1, V domains shown)
VH: QVQLVESGGGVVQPGRSLRLSCVASGFTLSSYGMHWVRQAPGKGLEWVAVIWYDGSSKYYTDSVKGRFDISRDNSKNTLYLQMNILRAEDTAVYYCARETILIGGVPFDYWGQGTLVTVSS
VL: EIVLTQSPGTLSLSPGERATLSCGASQSIRSNYLAWYQQKPGQAPRLLIYGASSRATGTPDRFSGSGSGTDFTLTITRLEPEDFALYYCQQYGRSYTFGQGTKLEIK
notes: Human variable regions on mouse constant regions; isotype IgG1/κ; Tested as parent hybridoma supernatant (MoB5G G1); also called 5G RG1.D3.C2b; MoB5G G1
Binding to PAR1 ratio (hPAR1 (Biotin) [6]): 1.1 ratio | Binding to PAR3 ratio (hPAR3 (Biotin) [7]): 0.8 ratio

B8: 5G.RA1 (antibody, IgG2a, V domains shown)
VH: QVQLVESGGGVVQPGRSLRLSCAASGFTFSSYGMHWVRQAPGKGLEWVAVIWYDGSNKYYADSVKGRFTISRDNSKNTLYLQMNSLRAEDTAVYYCARETALVRGVPFDYWGQGTLVTVSS
VL: not shown
notes: Human variable regions on mouse constant regions; isotype IgG2a/κ; also called 5G.RA1.E10.G3; MoB5G A1
Binding to human platelets, FACS GMFI at 10 ug/ml (over isotype control) [1]: 25 GMFI

B9: 5H.RD2 (antibody, IgG1, V domains shown)
VH: EVQLVESGGDLVKPGGSLRLSCSASGFTFFNTWMNWVRQAPGKGLEWVGRVKSKNDGGTKDYAAPVTGRFTISRDDSKDTLYLQMNSLKTEDTAVYYCTTDPHYDFWSAYWGQGTLVTVSS
VL: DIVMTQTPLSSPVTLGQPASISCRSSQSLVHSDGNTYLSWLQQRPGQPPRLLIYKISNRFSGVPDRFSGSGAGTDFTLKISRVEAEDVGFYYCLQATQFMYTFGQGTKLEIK
notes: Human variable regions on mouse constant regions; isotype IgG1/κ; also called 5H.RD2.A7b; MoB5H-RD2.A7b
Binding to PAR1 ratio (hPAR1 (Biotin) [6]): 1 ratio | Binding to PAR3 ratio (hPAR3 (Biotin) [7]): 0.9 ratio

B10: 5F.RF3 (antibody, IgG2b, V domains shown)
VH: QVQLVQSGAEVKKPGASVKVSCKTSAYTFTNYGISWVRQAPGQGLEWMGWISPYNGNTNYAQKLQGRVTMTTDTSTRTAYMELRSLRSDDTAVYYCAREYNRSSRGRYYYYGMDVWGQGTTVTVSS
VL: EIVLTQSPGTLSLSPGERATLSCRASQSVSSNYLAWYQKKPGQAPRLLISGASSRATGIPDRFSGSGSGTDFTLTISRLEPEDFAVYYCQQYGSSPWTFGQGTKVEIK
notes: Human variable regions on mouse constant regions; isotype IgG2b/κ; also called 5F.RF3.A7b.C9; MoB5F-RF3.A7b.C9
Binding to human platelets, FACS GMFI at 10 ug/ml (over isotype control) [1]: 53 GMFI

Results, then the binder that gave them:

binding result (hPAR2 (Biotin)): no binding (tested: 10 ug/ml) | binding result (hPAR1 (Biotin) [2]): no binding (tested: 10 ug/ml) | binding result (hPAR3 (Biotin) [3]): no binding (tested: 10 ug/ml) | Kd (hPAR4 (Biotin) [4]): ~0.4 nM | Binding to human platelets, FACS GMFI at 10 ug/ml (over isotype control) [1]: 39 GMFI | Kd (hPAR4 (Biotin) [5]): 0.32 nM | koff (hPAR4 (Biotin) [5]): 0.000417 s⁻¹ | kon (hPAR4 (Biotin) [5]): 1.32e+06 M⁻¹ s⁻¹
B2: 5A.RC3 (antibody, IgG2a, V domains shown)
VH: QVQLVESGGGVVQPGRSLRLSCAASGFTLSNYGMHWVRQAPGKGLEWVSVIWYDGSNKHYADSVKGRFTISRDNSKNTLYLQMNSLRAEDTAVYYCARESIVEVLPPFDYWGQGTLVTVSS
VL: KIVLTQSPGTLSLSPGERVTLSCRASQRVRNNYLAWFQQKPGQAPRLFIYGASSRATGIPDRFSGSGSGTDFIFTISRLEPEDFAVYYCQQYGNSYTFGQGTKLEIK
notes: Human variable regions on mouse constant regions (HumAb mice); isotype IgG2a/κ; also called 5A.RC3.F10b.H4b; MoB5A-RC3.F10b.H4b

binding result (hPAR2 (Biotin)): no binding (tested: 10 ug/ml) | binding result (hPAR1 (Biotin) [2]): no binding (tested: 10 ug/ml) | binding result (hPAR3 (Biotin) [3]): no binding (tested: 10 ug/ml) | Binding to PAR1 ratio (hPAR1 (Biotin) [6]): 1 ratio | Binding to PAR3 ratio (hPAR3 (Biotin) [7]): 0.9 ratio | Kd (hPAR4 (Biotin) [5]): 0.61 nM | koff (hPAR4 (Biotin) [5]): 0.00111 s⁻¹ | kon (hPAR4 (Biotin) [5]): 1.84e+06 M⁻¹ s⁻¹
B5: 5H.RF2 (antibody, IgG2a, V domains shown)
VH: QVQLQQWGAGLLKPSETLALTCAVYGGSLSDYYWSWIRQPPGKGLEWIGEINHSGTTNYNPSLKSRVTISVDTSKKQFSLKLSSVTAADTAVYYCAIEYSNSRGYYYGMDVWGQGTTVTVSS
VL: DIQMTQSPSSLSASAGDRITITCRASQTISNYLNWYQQKPGKAPKLLIYAASSLQSGVPSRFSGSGSGTDFTLTISSLQPEDFASYYCRQNYNTPLTFGGGTKVEIK
notes: Human variable regions on mouse constant regions; isotype IgG2a/κ; also called 5H.RF2.A5b.D3.C2; MoB5H F2

binding result (hPAR2 (Biotin)): no binding (tested: 10 ug/ml) | binding result (hPAR1 (Biotin) [2]): no binding (tested: 10 ug/ml) | binding result (hPAR3 (Biotin) [3]): no binding (tested: 10 ug/ml) | Binding to PAR1 ratio (hPAR1 (Biotin) [6]): 1 ratio | Binding to PAR3 ratio (hPAR3 (Biotin) [7]): 1 ratio | Kd (hPAR4 (Biotin) [5]): 0.36 nM | koff (hPAR4 (Biotin) [5]): 0.000667 s⁻¹ | kon (hPAR4 (Biotin) [5]): 1.85e+06 M⁻¹ s⁻¹
B6: 5I.RG1 (antibody, IgG3, V domains shown)
VH: QVQLQQWGAGLLKPSETLSLACAISSGSFSTYFWRWIRQPPGKGLEWIGEIIHTGSTTYNPSLKSRVTISVDTSKNQLSLKLSSVTAADTAVYYCAFEYSSSGGYYYGMDVWGQGTTVTVSS
VL: DIQMTQSPSSLSASVGDRVTITCRASQSISSYLNWYQQIPGKAPNLLIYAASSLRSGVPSRFSGSGSGTDFTLTISSLQPEDFATYYCQQTYSTPLTFGGGTKVEIK
notes: Human variable regions on mouse constant regions; isotype IgG3/κ; also called 5I.RG1.D6.C1b; 51.RG1

Binding to PAR1 ratio (hPAR1 (Biotin) [6]): 1 ratio | Binding to PAR3 ratio (hPAR3 (Biotin) [7]): 0.9 ratio
B11: 5H.RH4 (antibody, IgG2b, V domains shown)
VH: QVQLQQWGAGLLKPSETLSLTCAVYGGSFSNYYWSWIHQPPGKGLEWIGEINHSGSTNYNPSLKSRVTISVDTSKKQFSLNLSSVTAADTAVYYCKVEHSSSSGHYYYGMDVWGQGTTVTVSS
VL: DIQMTQSPSSLSASVGDRVTITCRASQTISYYLNWYQQKPGKAPKLLIYAASRLQSGVPSRFSGSGSGTDFTLTISSLQPEDFTTYYCQQSYSTPLTFGGGTKVGIK
notes: Human variable regions on mouse constant regions; isotype IgG2b/κ; Tested as parent hybridoma supernatant (MoB5H H4); also called 5H RH4.C8b.A3.A6; MoB5H H4

Source: US20210179707A1 (published 2021)
